The record followed here is PMC2719869, “A Mouse Model for the Metabolic Effects of the Human Fat Mass and Obesity Associated FTO Gene” (PLoS Genetics, 2009).

The data set deals with the molecule itself. The data set is described as follows: native MS; non-denaturing nano-electrospray MS; 10 uM protein (Q-ToF) or 15 uM protein (Synapt HDMS) sprayed from 15 mM ammonium acetate pH 7.5, cone voltage 80 V; monomer to dimer.

B1: C-terminal domain of wild-type murine FTO (residues D329-end) (domain or fragment, mouse, UniProt Q8BGW1 329-502, looked up)
chain: DYILERCQLALQNVLNDSDDGDVSLKSFDPAVLKQGEEIHNEVEFEWLRQFWFQGNRYKLCTDWWCEPMTHLEGLWKKMESMTNAVLREVKREGLPVEQRSEILSAILVPLTVRQNLRKEWHARCQSRVVRTLPVQQKPDCRPYWEKDDPSMPLPFDLTDVVSELRGQLLEARS
modifications: partial alpha-N-gluconylation of the N-terminal His-tag (+178 Da adduct, likely)
notes: FTO, mouse, C-terminal domain, residues 329-502; Further details of the construct are in Text S1; also called CmFTO; mFTO 329-502 truncation; source: E. coli, soluble; prepared as previously reported for full length mFTO [8]; not shown: His tag, N-terminal, kept
Turning to B1, the “stoichiometry N” value turned out to be 2.

B2: wild-type murine FTO (fat mass and obesity associated protein), full length (enzyme, mouse, UniProt Q8BGW1 1-502, looked up)
chain: MKRVQTAEEREREAKKLRLLEELEDTWLPYLTPKDDEFYQQWQLKYPKLVFREAGSIPEELHKEVPEAFLTLHKHGCLFRDVVRIQGKDVLTPVSRILIGDPGCTYKYLNTRLFTVPWPVKGCTVKYTEAEIAAACQTFLKLNDYLQVETIQALEELAVREKANEDAVPLCMAEFPRAGVGPSCDDEVDLKSRAAYNVTLLNFMDPQKMPYLKEEPYFGMGKMAVSWHHDENLVDRSAVAVYSYSCEGSEDESEDESSFEGRDPDTWHVGFKISWDIETPGLTIPLHQGDCYFMLDDLNATHQHCVLAGSQPRFSSTHRVAECSTGTLDYILERCQLALQNVLNDSDDGDVSLKSFDPAVLKQGEEIHNEVEFEWLRQFWFQGNRYKLCTDWWCEPMTHLEGLWKKMESMTNAVLREVKREGLPVEQRSEILSAILVPLTVRQNLRKEWHARCQSRVVRTLPVQQKPDCRPYWEKDDPSMPLPFDLTDVVSELRGQLLEARS
notes: also called mFTO; wild-type mFTO; source: E. coli, soluble; prepared as previously reported for full length mFTO [8]
On to B2, for which the “stoichiometry N” value turned out to be 2.
